Assay results reported in patent US20100168020A1 (Amgen, published 2010).

T1: myostatin (human, UniProt O14793 267-375)
T1 sequence: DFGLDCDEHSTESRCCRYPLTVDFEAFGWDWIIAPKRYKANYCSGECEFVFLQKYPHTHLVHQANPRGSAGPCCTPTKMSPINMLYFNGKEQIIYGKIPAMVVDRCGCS

T2: activin A (Homo sapiens (Human), UniProt P08476 311-426)
T2 sequence: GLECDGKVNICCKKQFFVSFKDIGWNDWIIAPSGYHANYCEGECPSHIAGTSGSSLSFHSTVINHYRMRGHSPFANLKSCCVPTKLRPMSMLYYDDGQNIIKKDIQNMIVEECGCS


Legend:
[1] = biological target: GDF-11 (Homo sapiens (Human)) (UniProt O95390); assay: cell-based or functional assay
myostatin [2] = biological target: T1, myostatin; assay: cell-based or functional assay
activin A [3] = biological target: T2, activin A; assay: cell-based or functional assay
[4] = biological target: GDF-11 (Homo sapiens (Human)) (UniProt O95390); assay: KinExA solution equilibrium, ligand-coated beads, Cy5 anti-human Fc detection
myostatin [5] = biological target: T1, myostatin; assay: as above
Procedure: (§1) Solution-based equilibrium-binding assays using KinExA™ technology (Sapidyne Instruments, Inc.) were used to determine the dissociation equilibrium (KD) of ligand binding to ActRIIB-Fc polypeptides. UltraLink Biosupport beads (Pierce) was pre-coated with about 100 μg/ml each of myostatin, GDF-11, and activin A overnight, and then blocked with BSA. 1 pM and 3 pM of ActRIIB-Fc (E28W) (SEQ ID NO: 21) and svActRIIB-Fc (E28W, S44T) (SEQ ID NO: 10) samples were incubated with various concentrations (0.7 fM to 160 pM) of myostatin, activin A, and GDF-11 respectively in sample buffer at room temperature for 8 hours before being run through the ligand-coated beads. The amount of the bead-bound soluble receptor was quantified by fluorescent (Cy5) labeled goat anti-human-Fc antibody at 1 mg/ml in superblock. The binding signal is proportional to the concentration of free soluble receptor at equilibrium with a given myostatin, activin A, or GDF-11 concentration. KD was obtained from the nonlinear regression of the competition curves using a dual-curve one-site homogeneous binding model provided in the KinEx A™ software (Sapidyne Instruments, Inc.).

activin A [6] = biological target: T2, activin A; assay: as above
Procedure: as §1

| IC50, luciferase activity of C2C12/pMARE-luc reporter cells at 4 nM ligand [1] | IC50, luciferase activity of C2C12/pMARE-luc reporter cells at 4 nM ligand (myostatin [2]) | IC50, luciferase activity of C2C12/pMARE-luc reporter cells at 4 nM ligand (activin A [3]) | Kd [4] | Kd (myostatin [5]) | Kd (activin A [6]) | Binder |
| --- | --- | --- | --- | --- | --- | --- |
| 2.4 nM | 0.95 nM | 3.2 nM | 0.1 pM | 0.1 pM | 0.2 pM | ActRIIB-Fc (E28W) (Fc fusion, also called ActRIIB-IgG2Fc (E28W); ActRIIB-IgG Fc (E28W)) ETRWCIYYNANWELERTNQSGLERCEGEQDKRLHCYASWRNSSGTIELVKKGCWLDDFNCYDRQECVATEENPQVYFCCCEGNFCNERFTHLPEAGGPEVTYEPPPTAPTGGGGSVECPPCPAPPVAGPSVFLFPPKPKDTLMISRTPEVTCVVVDVSHEDPEVQFNWYVDGVEVHNAKTKPREEQFNSTFRVVSVLTVVHQDWLNGKEYKCKVSNKGLPAPIEKTISKTKGQPREPQVYTLPPSREEMTKNQVSLTCLVKGFYPSDIAVEWESNGQPENNYKTTPPMLDSDGSFFLYSKLTVDKSRWQQGNVFSCSVMHEALHNHYTQKSLSLSPGK |
| 2.4 nM | 1.07 nM | 3.6 nM | 0.1 pM | 0.1 pM | 0.1 pM | svActRIIB-Fc (E28W, S44T) (Fc fusion, Made in 293-6E or CHO cells; also called svActRIIB-IgG2Fc (E28W, S44T); svActRIIB-IgG Fc (E28W, S44T)) ETRWCIYYNANWELERTNQTGLERCEGEQDKRLHCYASWRNSSGTIELVKKGCWLDDFNCYDRQECVATEENPQVYFCCCEGNFCNERFTHLPEAGGPEVTYEPPPTAPTGGGGSVECPPCPAPPVAGPSVFLFPPKPKDTLMISRTPEVTCVVVDVSHEDPEVQFNWYVDGVEVHNAKTKPREEQFNSTFRVVSVLTVVHQDWLNGKEYKCKVSNKGLPAPIEKTISKTKGQPREPQVYTLPPSREEMTKNQVSLTCLVKGFYPSDIAVEWESNGQPENNYKTTPPMLDSDGSFFLYSKLTVDKSRWQQGNVFSCSVMHEALHNHYTQKSLSLSPGK |
